This is an account of results in patent publication US20060142193.

This data set concerns the target T1, serum response factor (SRF), P11831.
T1 chain: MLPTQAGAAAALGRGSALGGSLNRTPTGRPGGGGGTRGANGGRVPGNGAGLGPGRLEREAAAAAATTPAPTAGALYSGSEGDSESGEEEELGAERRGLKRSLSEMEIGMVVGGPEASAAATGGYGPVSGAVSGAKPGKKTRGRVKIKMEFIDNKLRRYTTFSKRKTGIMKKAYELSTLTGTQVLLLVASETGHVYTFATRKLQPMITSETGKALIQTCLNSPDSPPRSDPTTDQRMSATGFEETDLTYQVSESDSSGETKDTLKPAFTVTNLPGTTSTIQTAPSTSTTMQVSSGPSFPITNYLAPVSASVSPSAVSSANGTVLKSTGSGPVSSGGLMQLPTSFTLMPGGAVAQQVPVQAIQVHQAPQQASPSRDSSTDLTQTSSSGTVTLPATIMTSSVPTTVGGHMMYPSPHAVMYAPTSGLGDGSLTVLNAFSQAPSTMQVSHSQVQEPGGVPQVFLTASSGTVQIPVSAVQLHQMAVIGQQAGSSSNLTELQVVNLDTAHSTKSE

B1: ROCK1Δ1 (C-terminally truncated mutant (1-1080) of ROCK1) (protein)
chain: MSTGDSFETRFEKMDNLLRDPKSEVNSDCLLDGLDALVYDLDFPALRKNKNIDNFLSRYKDTINKIRDLRMKAEDYEVVKVIGRGAFGEVQLVRHKSTRKVYAMKLLSKFEMIKRSDSAFFWEERDIMAFANSPWVVQLFYAFQDDRYLYMVMEYMPGGDLVNLMSNYDVPEKWARFYTAEVVLALDAIHSMGFIHRDVKPDNMLLDKSGHLKLADFGTCMKMNKEGMVRCDTAVGTPDYISPEVLKSQGGDGYYGRECDWWSVGVFLYEMLVGDTPFYADSLVGTYSKIMNHKNSLTFPDDNDISKEAKNLICAFLTDREVRLGRNGVEEIKRHLFFKNDQWAWETLRDTVAPVVPDLSSDIDTSNFDDLEEDKGEEETFPIPKAFVGNQLPFVGFTYYSNRRYLSSANPNDNRTSSNADKSLQESLQKTIYKLEEQLHNEMQLKDEMEQKCRTSNIKLDKIMKELDEEGNQRRNLESTVSQIEKEKMLLQHRINEYQRKAEQENEKRRNVENEVSTLKDQLEDLKKVSQNSQLANEKLSQLQKQLEEANDLLRTESDTAVRLRKSHTEMSKSISQLESLNRELQERNRILENSKSQTDKDYYQLQAILEAERRDRGHDSEMIGDLQARITSLQEEVKHLKHNLEKVEGERKEAQDMLNHSEKEKNNLEIDLNYKLKSLQQRLEQEVNEHKVTKARLTDKHQSIEEAKSVAMCEMEKKLKEEREAREKAENRVVQIEKQCSMLDVDLKQSQQKLEHLTGNKERMEDEVKNLTLQLEQESNKRLLLQNELKTQAFEADNLKGLEKQMKQEINTLLEAKRLLEFELAQLTKQYRGNEGQMRELQDQLEAEQYFSTLYKTQVKELKEEIEEKNRENLKKIQELQNEKETLATQLDLAETKAESEQLARGLLEEQYFELTQESKKAASRNRQEITDKDHTVSRLEEANSMLTKDIEILRRENEELTEKMKKAEEEYKLEKEEEISNLKAAFEKNINTERTLKTQAVNKLAEIMNRKDFKIDRKKANTQDLRKKEKENRKLQLELNQEREKFNQMVVKHQKELNDMQAQLVEECAHRNELQMQL
Turning to B1, the “level of full-length SRF after incubation with active caspase 3 in the presence or absence of ROCK1Δ1” value was “The full-length level was markedly decreased in the presence of active ROCK1”.
